Results from patent US20230118307A1, “THERAPEUTIC USE OF LONG-ACTING CONJUGATE OF TRIPLE AGONIST HAVING ACTIVITIES TO ALL OF GLUCAGON/GLP-1/GIP RECEPTORS FOR LUNG DISEASE” (HANMI PHARM. CO., LTD., priority 2020, published 2023).
Positions of bridges follow the written chain, without caps; N, C: chain ends. Non-standard residues stand in square brackets, D forms with d. No end group written: not given here. *: point of attachment. Acetyl(2-(4-imidazolyl)) = O=C(Cc1c[nH]cn1)*; Aib = CC(C)(N)C(=O)O

T1: human GIP receptor (human, UniProt P48546 22-466)
T1 sequence (looked up): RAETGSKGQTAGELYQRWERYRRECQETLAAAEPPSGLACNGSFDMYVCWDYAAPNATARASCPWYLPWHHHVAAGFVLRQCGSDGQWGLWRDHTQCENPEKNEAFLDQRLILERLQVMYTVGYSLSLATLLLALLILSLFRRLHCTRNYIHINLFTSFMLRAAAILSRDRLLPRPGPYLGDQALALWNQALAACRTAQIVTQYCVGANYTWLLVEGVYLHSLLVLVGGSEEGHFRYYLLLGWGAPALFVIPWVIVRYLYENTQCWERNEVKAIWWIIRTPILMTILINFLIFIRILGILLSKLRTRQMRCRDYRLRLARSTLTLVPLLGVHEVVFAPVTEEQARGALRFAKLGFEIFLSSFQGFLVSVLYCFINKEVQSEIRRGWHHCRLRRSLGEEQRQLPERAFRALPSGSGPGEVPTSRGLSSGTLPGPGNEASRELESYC

B1: triple agonist of SEQ ID NO: 61 (peptide)
peptide: {Acetyl(2-(4-imidazolyl))}-[Aib]QGTFTSDYSIAMDEIACKDFVNWLLNTK
modifications: bridge 15-19
B2: triple agonist of SEQ ID NO: 62 (peptide)
peptide: {Acetyl(2-(4-imidazolyl))}-[Aib]QGTFTSDKSKYLDERAAQDFVQWLLDGGPSSGAPPPS
modifications: ends and bridges not checked
B3: triple agonist of SEQ ID NO: 63 (peptide)
peptide: {Acetyl(2-(4-imidazolyl))}-[Aib]QGTFTSDCSKYLDERAAQDFVQWLLDGGPSSGAPPPS
modifications: ends and bridges not checked
B4: triple agonist of SEQ ID NO: 64 (peptide)
peptide: Y[Aib]QGTFTSDYSKYLDECAAKEFVQWLLDHHPSSGQPPPS
modifications: bridge 16-20
B5: triple agonist of SEQ ID NO: 7 (peptide)
peptide: H[Aib]QGTFTSDVSKYLDGQAAKEFVAWLLKGC
B6: triple agonist of SEQ ID NO: 65 (peptide)
peptide: H[Aib]QGTFTSDYSKCLDEKRAKEFVQWLLDHHPSSGQPPPS
modifications: bridge 16-20
B7: triple agonist of SEQ ID NO: 66 (peptide)
peptide: Y[Aib]QGTFTSDYSKYLDECRAKDFVQWLLDHHPSSGQPPPS
modifications: bridge 16-20
B8: triple agonist of SEQ ID NO: 67 (peptide)
peptide: Y[Aib]QGTFTSDYSKYLDECAAKDFVQWLLDHHPSSGQPPPS
modifications: bridge 16-20
B9: triple agonist of SEQ ID NO: 68 (peptide)
peptide: Y[Aib]QGTFTSDYSKCLDEKAAKEFVQWLLDHHPSSGQPPPS
modifications: bridge 16-20
B10: triple agonist of SEQ ID NO: 69 (peptide)
peptide: Y[Aib]QGTFTSDYSKCLDERAAKEFVQWLLDHHPSSGQPPPS
modifications: bridge 16-20
B11: triple agonist of SEQ ID NO: 70 (peptide)
peptide: Y[Aib]QGTFTSDYSKCLDEKRAKDFVQWLLDHHPSSGQPPPS
modifications: bridge 16-20
B12: triple agonist of SEQ ID NO: 71 (peptide)
peptide: Y[Aib]QGTFTSDYSKYLDERACKDFVQWLLDHHPSSGQPPPS
modifications: bridge 16-20
B13: triple agonist of SEQ ID NO: 72 (peptide)
peptide: Y[Aib]QGTFTSDCSKYLDERAAKDFVQWLLDHHPSSGQPPPS
modifications: bridge 16-20
B14: triple agonist of SEQ ID NO: 73 (peptide)
peptide: [Acetyl(2-(4-imidazolyl))][Aib]QGTFTSDYSKYLDECRAKEFVQWLLDHHPSSGQPPPS
modifications: bridge 16-20

molecular target: human GCG receptor (human, UniProt P47871 26-477); experiment: cell-based or functional assay
Sequence (P47871 26-477): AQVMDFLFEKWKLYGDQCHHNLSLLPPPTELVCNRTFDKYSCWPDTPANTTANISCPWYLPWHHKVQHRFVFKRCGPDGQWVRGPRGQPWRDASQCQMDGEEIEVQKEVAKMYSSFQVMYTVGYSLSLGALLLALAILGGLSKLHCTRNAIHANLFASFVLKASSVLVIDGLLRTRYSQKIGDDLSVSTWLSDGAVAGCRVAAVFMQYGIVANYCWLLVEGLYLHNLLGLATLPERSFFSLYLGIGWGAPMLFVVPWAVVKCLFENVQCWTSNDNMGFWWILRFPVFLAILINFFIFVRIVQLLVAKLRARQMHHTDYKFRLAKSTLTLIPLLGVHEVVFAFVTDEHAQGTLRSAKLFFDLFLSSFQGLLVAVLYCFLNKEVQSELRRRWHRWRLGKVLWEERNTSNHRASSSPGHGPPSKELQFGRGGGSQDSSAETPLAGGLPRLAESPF

| Binder | In vitro Activity Compared to Native Peptide (%) vs. Glucagon [%] |
| --- | --- |
| B1 | < 0.1 |
| B2 | < 0.1 |
| B3 | < 0.1 |
| B4 | 60.1 |
| B5 | < 0.1 |
| B6 | 25.2 |
| B7 | 172 |
| B8 | 46.2 |
| B9 | 8.8 |
| B10 | 9.6 |
| B11 | 71.3 |
| B12 | 12.7 |
| B13 | 1 |
| B14 | 5.4 |

molecular target: human GLP-1 receptor (human, UniProt P43220 24-463); experiment: cell-based or functional assay

| Binder | In vitro Activity Compared to Native Peptide (%) vs. GLP-1 [%] |
| --- | --- |
| B1 | 59.8 |
| B2 | 5.2 |
| B3 | 15.3 |
| B4 | 64.6 |
| B5 | 13.7 |
| B6 | 95.4 |
| B7 | 15.8 |
| B8 | 28.5 |
| B9 | 27.9 |
| B10 | 24.3 |
| B11 | 15.1 |
| B12 | 90.1 |
| B13 | 11.5 |
| B14 | 22.6 |

molecular target: T1, human GIP receptor; experiment: cell-based or functional assay

| Binder | In vitro Activity Compared to Native Peptide (%) vs. GIP [%] |
| --- | --- |
| B1 | 2.8 |
| B2 | < 0.1 |
| B3 | < 0.1 |
| B4 | 92.9 |
| B5 | < 0.1 |
| B6 | 11.6 |
| B7 | 17.2 |
| B8 | 39.8 |
| B9 | 107 |
| B10 | 62.8 |
| B11 | 64.4 |
| B12 | 94.7 |
| B13 | 1.6 |
| B14 | 3 |
